These results are taken from patent US20210032351A1 (XDCEXPLORER SHANGHAI, published 2021).

Test [1] concerns the target T1, pep06 (cysteine pairing not given here).
T1 peptide: GNYVVTDHGSCVRACGK(Biotin)
In words: polypeptide dot matrix ELISA. Background: ELISA stands for enzyme-linked immunosorbent assay.

For test [2], the target named is T2, pep14 (cysteine pairing not given here).
T2 peptide: GSCVRACGADSYEMEEK(Biotin)
Description: polypeptide dot matrix ELISA.

Test [3] deals with T3, pep17.
T3 peptide: VRACGADSYEMEEDGVK(Biotin)
Description: polypeptide dot matrix ELISA.

Test [4] has as its target T4, pep34 (cysteine pairing not given here).
T4 peptide: KCKKCEGPCRKVCNGIK(Biotin)
In words: polypeptide dot matrix ELISA.

Test [5] addresses T5, pep23 (cysteine pairing not given here).
T5 peptide: DSYEMEEDGVRKCKKCK(Biotin)
In words: polypeptide dot matrix ELISA.

The target of test [6] is T6, pep03.
T6 peptide: EKKGNYVVTDHGSCVRK(Biotin)
Description: polypeptide dot matrix ELISA.

Test [7] addresses T7, pep21.
T7 peptide: GADSYEMEEDGVRKCKK(Biotin)
In words: polypeptide dot matrix ELISA.

The target of test [8] is T8, pep15 (cysteine pairing not given here).
T8 peptide: SCVRACGADSYEMEEDK(Biotin)
In words: polypeptide dot matrix ELISA.

Test [9] deals with T9, pep35 (cysteine pairing not given here).
T9 peptide: CKKCEGPCRKVCNGIGK(Biotin)
In words: polypeptide dot matrix ELISA.

Test [10] has as its target T10, pep02.
T10 peptide: EEKKGNYVVTDHGSCVK(Biotin)
In words: polypeptide dot matrix ELISA.

The target in test [11] is T11, pep30 (cysteine pairing not given here).
T11 peptide: DGVRKCKKCEGPCRKVK(Biotin)
In words: polypeptide dot matrix ELISA.

Test [12] concerns the target T12, pep16 (cysteine pairing not given here).
T12 peptide: CVRACGADSYEMEEDGK(Biotin)
In words: polypeptide dot matrix ELISA.

Test [13] deals with T13, pep32 (cysteine pairing not given here).
T13 peptide: VRKCKKCEGPCRKVCNK(Biotin)
In words: polypeptide dot matrix ELISA.

The target of test [14] is T14, pep19.
T14 peptide: ACGADSYEMEEDGVRKK(Biotin)
Description: polypeptide dot matrix ELISA.

In test [15] the target is T15, pep13 (cysteine pairing not given here).
T15 peptide: HGSCVRACGADSYEMEK(Biotin)
In words: polypeptide dot matrix ELISA.

The target in test [16] is T16, pep25 (cysteine pairing not given here).
T16 peptide: YEMEEDGVRKCKKCEGK(Biotin)
Description: polypeptide dot matrix ELISA.

Test [17] has as its target T17, human EGFRvIII-hFc protein (human, UniProt P00533 25-645).
T17 construct: extracellular domain; made in HEK293 cells, purified on protein A; also called immunogen A; hFc-tagged EGFRvIII protein; not shown: human IgG Fc fragment (hFc) of the pCpC vector
In words: ELISA, coated EGFRvIII-hFc, antibody 0.1 nM. In outline:
(§1)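 EGFRvIII-hFc coated at 1.0 μg/mL in PBS overnight at 4° C, blocked with PBS/0.01% Tween20/1% BSA for 2 h at room temperature. Purified anti-EGFRvIII antibody bound 2 h at 37° C, then HRP-labeled secondary 2 h at 37° C. TMB developed 30 min, stopped with 1.0N HCl, A450 nm read.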

The target in test [18] is T18, human EGFR protein (wild-type), on cells (human, UniProt P00533 25-1210).
T18 construct: whole, on cells; transfected on CHO-K1 cells; endogenous on the human cell lines; the cell is named under assay; also called wild-type EGFR; hEGFR
In words: FACS on A431 cells (wild-type EGFR), Alexa 488 secondary antibody, mean fluorescence intensity. The protocol: The cells are washed twice with the HBSS buffer and are counted, and then the cells are diluted with the HBSS buffer to 2×10⁶ cells/ml, added with 1% goat serum blocking solution, with the percentage being the mass percentage, and incubated on ice for 30 minutes, and then centrifugally washed twice with the HBSS buffer. The collected cells are suspended to 2×10⁶ cells/mL with an FACS buffer (HBSS+1% BSA, with the percentage being the mass percentage), added to a 96-well FACS reaction plate at 100 μL/well, then added with 100 μL/well of the purified EGFRvIII antibody (samples to be tested) obtained in example 2, and incubated on ice for 2 hours. The plate is centrifugally washed twice with the FACS buffer, added with 100 μL/well of a fluorescence (Alexa 488) labeled secondary antibody (purchased from Invitrogen), and then incubated on ice for 1 hour. […] The cells are suspended in 100 μL of the FACS buffer, and the results are detected and analyzed by FACS (FACS Calibur, purchased from BD). Data analysis is performed by using the software (CellQuest) to obtain the mean fluorescence intensity (MFI) of the cells. Data is further analyzed by using the software (GraphPad Prism5) to perform data fitting and calculate EC50. […]

Test [19] concerns the target T17, human EGFRvIII-hFc protein. In words: ELISA, coated EGFRvIII-hFc, antibody 0.01 nM. An outline of the steps:
as §1

For test [20] the target is unchanged. Description: ELISA, coated EGFRvIII-hFc, antibody 0.0001 nM. In outline: as §1
In test [21] the target is T19, human EGFRvIII protein on the cell surface (human, UniProt P00533 25-1210).
T19 construct: whole, on cells; the cell line is named under assay; also called hEGFRvIII; U87MG-hEGFRvIII
Description: FACS on U87MG-hEGFRvIII cells.

Ends that are not written are not given here. * marks the point of attachment. Biotin = O=C1N[C@H]2[C@H](CS[C@H]2CCCCC(=O)*)N1

B1: Murine anti-75G7 (antibody, V domains shown)
VH: EVQLQQSGPELVKPGASVKIPCKASGYTFTDYNMDWVKQSHGKSLEWIGDINPNNGDTIYNQKFKGKATLTVDKSSSTAYMELRSLTSEDTAVYYCARGDYDGYYPVYYAMDYWGQGTSVTVSS
VL: ENVLTQSPAIMSASPGEKVTMTCRASSSVSSSYLHWYQQKSGASPKLWIFSTSNLAAGVPARFSGSGSGTSYSLTVSSVEAEDAATYYCQQYSGYPLTFGAGTKLELK
notes: murine hybridoma antibody; also called 75G7C6
As a reminder, the EC50 (read off the curve) is the concentration at which the effect is half-maximal. Consider B1, for which the binding result in test [1], in test [2], in test [3], in test [4], in test [5] and in [6] was “no binding” in each case. For the same molecule, the binding result in test [7], in [8], in test [9], in [10], in test [11] and in test [12] was “no binding” throughout. The binding result in [13], in test [14], in test [15] and in test [16] was “no binding” each time. In addition, the results for the OD450 nm in test [17], in test [19] and in test [20] were 0.07, 0.06 and 0.07, respectively. For the same molecule, the “EC50 (read off the curve)” value in [18] is roughly 10 nM.

B2: Chimeric antibody 75G7 (antibody, human IgG1, V domains shown)
VH: EVQLQQSGPELVKPGASVKIPCKASGYTFTDYNMDWVKQSHGKSLEWIGDINPNNGDTIYNQKFKGKATLTVDKSSSTAYMELRSLTSEDTAVYYCARGDYDGYYPVYYAMDYWGQGTSVTVSS
VL: ENVLTQSPAIMSASPGEKVTMTCRASSSVSSSYLHWYQQKSGASPKLWIFSTSNLAAGVPARFSGSGSGTSYSLTVSSVEAEDAATYYCQQYSGYPLTFGAGTKLELK
notes: also called c75G7C6; chimeric antibody c75G7C6
The term EC50 denotes the midpoint of the concentration-response curve. Read a low EC50 as a more potent agent. B2 returned an EC50 in test [21] of 6.1 nM.
